Data from the nanobody polyreactivity screen of Harvey et al. (2022).

Assay: yeast display, Sf9 membrane polyspecificity reagent, FACS + sequencing; frameworks hold sequencing errors
How it was run: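 Polyreactivity labels are assigned by the sorting gate from which each nanobody was recovered. The gates were low and high (top ~1%), set on anti-HA fluorescence for expression and streptavidin fluorescence for reagent binding. Before sorting, galactose-induced (36–48 hours) yeast display cells were stained for 1 hour at 4 °C with 10% biotinylated, detergent-solubilized Sf9 membrane reagent.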
With “QVQLVDSGGGLVQAGGSLRLSCAASGITIVYYAMGWNRQAPGKERELVAAITRGANTYYADSVKGRFTISRDNAKNTVYLQMNSLKPEDTAVYYCAADGWVGAWWYVLDVRYDYWGQGTQVTVSS” the “polyreactivity (PSR sort gate)” value was “low polyreactivity”. For “QVQLVDSGGGLVQAGGSLRLSCAASGLIFDVYAMGWYRQAPGKERELVAVISSDGGTYYADSVKGLFTISRDNAKNTVYLQMISLKPEYTAVYYCAARRWREGARYSYWGQGTQVTVSS”, the “polyreactivity (PSR sort gate)” value was “high polyreactivity”. In the case of “QVQLVDSGGGLVQAGGSLRLSCAASGLNFVINAMGWYRQAPGKERELDATISSGVSTNYADSVKGRFTISRDNAKNTVYLQMNSLKPEDTAVYDCNKGQTVSRGYRLYERYDYWGQGTQVTVSS”, the “polyreactivity (PSR sort gate)” value is reported as “low polyreactivity”. In the case of “QVQLVDSGGGLVQAGGSLRLSCAASGLTFTRYAMGWYRQAPGKERELVAAISKNGGSTYYADSVKGRFTISRDNAKNTVYLQMNSLKPAETAVYYCAARRYGPGRYPEDYWGQGTQVTVSS”, the “polyreactivity (PSR sort gate)” value is reported as “high polyreactivity”. In the case of “QVQLVDSGGGLVQAGGSLRLSCAASGLTIPVYTMVWYRHAPGTEREFVAAITYNGGRTYYADCVKGRFTISRDNAKNTVYLQMNSLKPEDTAVYYCAAEYGTYFVRYYAGASYRYGYWGQGTQVTVSS”, the “polyreactivity (PSR sort gate)” value is reported as “low polyreactivity”. With “QVQLVDSGGGLVQAGGSLRLSCAASGNTFSGNTMGWYRQAPGKERELVAAIRFTGGSTTYADSVKGRFTISRDNAKNTVYLQMNSLKPEDTAVYYCNTDWVSFRSIYHEYDYWGQGTQVTVSS” the “polyreactivity (PSR sort gate)” value was “low polyreactivity”. For “QVQLVDSGGGLVQAGGSLRLSCAASGRIFFPNGMGWYRQAPGKERELVATISRIGGSTYYADSVKGRFTISRDNAMNTVYLQRNSLKPEDTAVYYCAAQYSYGVYWTLPYGYNYWGQGTQVTVSS”, the “polyreactivity (PSR sort gate)” value was “low polyreactivity”. With “QVQLVDSGGGLVQAGGSLRLSCAASGRIFGSYVMGWYRQAPGKERELVAAITDGGTTYADSVKGRFTISRDNAKNTVYLQMNSLKPEDTAVYYCAADLYDWPLAWWEYYYWGQGTHVTVSS” the “polyreactivity (PSR sort gate)” value was “low polyreactivity”. With “QVQLVDSGGGLVQAGGSLRLSCAASGRIFPGKVMGWYRQAPGKERELVAAISSSGGSTYYADSVKGRFTISRDNAKNTVYLQMNSLKPEDTAVYYCAADSSDWPYDYWGQGTQVTVSS” the “polyreactivity (PSR sort gate)” value was “low polyreactivity”. For “QVQLVDSGGGLVQAGGSLRLSCAASGRIFQPNAMGWYRQAPGKEMEFVAAISSSGGSTFYADSVKGRFTISRDNAKNTVYLQMNSLKPEDTAVYYCAKRYGYTEYYYWGQGTQVTVSS”, the “polyreactivity (PSR sort gate)” value was “high polyreactivity”. With “QVQLVDSGGGLVQAGGSLRLSCAASGRIFRGYAMGWYRQAPGKERELVAAINRGSSTYYADSVKGRFTISRDNAKNTVYLQMNSLKPEDTAVYYCAVKGYLPYTGIFDYWGQGTQVTVSS” the “polyreactivity (PSR sort gate)” value was “high polyreactivity”. In the case of “QVQLVDSGGGLVQAGGSLRLSCAASGRIFRLYAMGWYRPAPGKERELVATITRSGVSTYYADSVKGRFTISRDNAKNTVYLQMNSLKPEDTAVYYCAVDRWGRYYATQYTFDYWGQGTQVTVSS”, the “polyreactivity (PSR sort gate)” value is reported as “high polyreactivity”. For “QVQLVDSGGGLVQAGGSLRLSCAASGRIFSVYAMGWYRQAPGNERELVAAITRVGSTNYADSVKGRFTISRDNAKNTVYLQMNSLKPEDTAVYYCAASKYGSLSGYWGQGTQVTVSS”, the “polyreactivity (PSR sort gate)” value was “high polyreactivity”. In the case of “QVQLVDSGGGLVQAGGSLRLSCAASGRISNYYAMGWYRQAPGKERELVAAITRSGGSTYYADSVKGRFTISRDNAKNTVYLQMNSLKPEDTAVYYCATDWTVRYDYWGQGTQVTVSS”, the “polyreactivity (PSR sort gate)” value is reported as “high polyreactivity”. In the case of “QVQLVDSGGGLVQAGGSLRLSCAASGRLFDRNAMGWYRQGPGKERELVARIDPGDDTNYSYSVTGRFTISRDNAKNTVYLQMNSLKPEDTAVYYCATDPDYVLYRTAYYEYDYWGKGTQVTVSS”, the “polyreactivity (PSR sort gate)” value is reported as “low polyreactivity”. In the case of “QVQLVDSGGGLVQAGGSLRLSCAASGRTFATYAMGWNRQAPGKERELVAAISSGGSTYYADSVKGRFTISRDNAKNNVYLQMNRLKPDDTAVYYCAAEVWFPDRWMDYWGQGTQVTVSS”, the “polyreactivity (PSR sort gate)” value is reported as “high polyreactivity”. In the case of “QVQLVDSGGGLVQAGGSLRLSCAASGRTFGAYDMGWYRQAPGKERELVAAISSGATTNYADSVKGRFTISRDNAKNTVYLQMNSLKPEDTAVYYCAASVYRYIYAFNYWGQGTQVTVSS”, the “polyreactivity (PSR sort gate)” value is reported as “low polyreactivity”.
